# Laboratory results published in the RNAGym collection of RNA variant scans (doi:10.1093/molbev/msab373).
# B1: Azoarcus group I ribozyme (parent)
# chain: GUGCCUUGCGCCGGGAAACCACGCAAGGGAUGGUGUCAAAUUCGGCGAAACCUAAGCGCCCGCCCGGGCGUAUGGCAACGCCGAGCCAAGCUUCGGCGCCUGCGCCGAUGAAGGUGUAGAGACUAGACGGCACCCACCUAAGGCAAACGCUAUGGUGAAGGCAUAGUCCAGGGAGUGGCGAAAGUCACACAAACCGG
# Variants of: B1
# Test: reverse-splicing fitness (ratio to wild type); higher = more active; in vitro selection; Mg2+ level not given
# Procedure, shortened: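 An in vitro group I ribozyme library with randomized positions was T7-transcribed and gel-purified. In triplicate, 10 pmol RNA in EPPS pH 7.5 was reacted with 50 pmoles of a 30-nt RNA substrate for 1 h at 37 °C across several added MgCl2 levels (1–48 mM), then stopped with EDTA. Products were reverse transcribed from a substrate-complementary primer, PCR-amplified and sequenced (HiSeq 4000). Fitness is a variant's read proportion after selection over that before, normalised to wild type.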
row,Variant,reverse-splicing fitness
1,A120C A145U C150G C169U,0.107
2,A120C A145U C150G C169A,0.00905
3,A120C A145U C150G C169G,0.00781
4,A111U A145U C150A C169A U176A,0.0131
5,A111U A145U C150A C169A U176G,0.00582
6,A111U A145U C150A C169A U176C,0.00995
7,A111U C150A C169U,0.0167
8,A111U C150A C169A,0.0111
9,A111U C150A C169G,0.0124
10,A111U A145U C169A U176A,0.0113
11,A111U A145U C169A U176G,0.00631
12,A111U A145U C169A U176C,0.0115
13,A120C A145C C150G C169A U176G,0.00424
14,A120C A145C C150G C169A U176A,0.00776
15,A120C A145C C150G C169A U176C,0.00596
16,A120C A145C C150U C169G U176G,0.00381
17,A120C A145C C150U C169G U176C,0.00823
18,A120C A145C C150U C169G U176A,0.0156
19,A120C A145G C150G C169U U176A,0.0149
20,A120C A145G C150G C169U U176G,0.00611
21,A120C A145G C150G C169U U176C,0.0406

row,Variant,reverse-splicing fitness
1,A120C A145U C150A C169U U176A,0.0459
2,A120C A145U C150A C169U U176G,0.0079
3,A120C A145U C150A C169U U176C,0.0562
4,A120C A145U C150U C169U,0.329
5,A120C A145U C150U C169A,0.0252
6,A120C A145U C150U C169G,0.0196
7,A120C A145U C169A U176C,0.0127
8,A120C A145U C169A U176G,0.00466
9,A120C A145U C169A U176A,0.01
10,A120C A145G C150G U176A,0.0905
11,A120C A145G C150G U176C,0.146
12,A120C A145G C150G U176G,0.019
13,A111U A145U C150U C169A,0.0209
14,A111U A145U C150U C169U,0.0705
15,A111U A145U C150U C169G,0.0415
16,A120C A145U C150A C169A U176A,0.0124
17,A120C A145U C150A C169A U176C,0.00632
18,A120C A145U C150A C169A U176G,0.00377
19,A111U A145U C150G C169G U176C,0.00535
20,A111U A145U C150G C169G U176A,0.00711
21,A111U A145U C150G C169G U176G,0.00534

row,Variant,reverse-splicing fitness
1,A120C A145G C150A C169A U176C,0.0217
2,A120C A145G C150A C169A U176A,0.0168
3,A120C A145G C150A C169A U176G,0.00483
4,A111U C150G C169A U176A,0.0102
5,A111U C150G C169A U176G,0.00689
6,A111U C150G C169A U176C,0.0111
7,A120C A145G C150A U176G,0.0729
8,A120C A145G C150A U176C,0.271
9,A120C A145G C150A U176A,0.263
10,A111U C150U U176C,0.638
11,A111U C150U U176A,0.6
12,A111U C150U U176G,0.251
13,A111U A145U U176C,0.767
14,A111U A145U U176A,0.747
15,A111U A145U U176G,0.364
16,A120C A145C C150G C169G U176C,0.00582
17,A120C A145C C150G C169G U176G,0.00352
18,A120C A145C C150G C169G U176A,0.00848
19,A111U A145U C150G U176A,0.138
20,A111U A145U C150G U176C,0.193
21,A111U A145U C150G U176G,0.025

row,Variant,reverse-splicing fitness
1,A111U C169A U176G,0.00592
2,A111U C169A U176A,0.0172
3,A111U C169A U176C,0.0214
4,A111U C150G U176A,0.0805
5,A111U C150G U176G,0.0165
6,A111U C150G U176C,0.124
7,A111U A145U C150A C169U U176G,0.00626
8,A111U A145U C150A C169U U176A,0.0151
9,A111U A145U C150A C169U U176C,0.0162
10,A120C A145G C169A,0.0366
11,A120C A145G C169G,0.0256
12,A120C A145G C169U,0.47
13,A111U A145U C150G C169U U176C,0.0129
14,A111U A145U C150G C169U U176A,0.00897
15,A111U A145U C150G C169U U176G,0.00601
16,A111U A145U C169U,0.109
17,A111U A145U C169G,0.0652
18,A111U A145U C169A,0.0323
19,A111U A145G C169G U176A,0.0249
20,A111U A145G C169G U176G,0.00535
